In experiment [1] the target is T1, cynomolgus CD40-Fc protein (cynomolgus, UniProt G7PG38 21-193).
T1 construct: not shown: Fc part
As to the kind of experiment: BLI (ForteBio), CD40-Fc on AHQ sensor, 100 nM Fab in solution, monovalent, 1:1 model. The protocol: (§1) The antigen-loaded sensor was incubated with 100 nM Fab solution until a plateau was reached, and then the sensor was transferred to the analysis buffer for at least 2 minutes for dissociation rate measurement. Kinetic analysis was performed using a 1:1 binding model.

Experiment [2] concerns the target T2, cynomolgus CD40 overexpressed on CHO-S cells (cynomolgus, UniProt G7PG38 21-278).
T2 construct: whole, on cells; also called cynomolgus CD40 expressing CHO cells
As to the kind of experiment: flow cytometry on CHO-S cells overexpressing cynomolgus CD40. The protocol: (§2) Specifically, by transfecting the pCHO1.0 vector (Invitrogen) with the human/cynomolgus CD40 cDNA cloned into the MCS and followed by applying pressure selection, CHO-S cells overexpressing human/cynomolgus CD40 were generated. The expanded CD40 overexpressing cells were adjusted to the appropriate cell density and plated on 96-well flow plate. After centrifugation, the cells were incubated with a gradient-diluted sample at 4° C. for 30 minutes. and the cells were then washed twice with PBS, and followed by incubation with a fluorescent secondary antibody diluted to the appropriate concentration, at 4° C. for 30 min. Following two washes with PBS, cells were resuspended in PBS and fluorescent signals were detection on the CytoFlex flow cytometer to calculate the corresponding MFI.
On the technique in general: Flow cytometry measures light scatter and fluorescence of single cells or particles in a stream.

In experiment [3] the target is T1, cynomolgus CD40-Fc protein. Kind of experiment: BLI (ForteBio), IgG on AHQ sensor, 100 nM CD40-Fc in solution, bivalent, 1:1 model. As for the experimental part:
(§3) The antibody-loaded sensor was further incubated in a high concentration of irrelevant intact antibody solution for 10 minutes to saturate and block the Fc binding sites on the AHQ sensor. The blocked sensor was then incubated with 100 nM CD40-Fc antigen until a plateau was reached, and then the sensor was transferred to the analysis buffer for at least 2 minutes for dissociation rate measurement. Kinetic analysis was performed using a 1:1 binding model.
(In general: BLI is a label-free optical method that tracks binding on a fibre tip over time.)

Experiment [4] has as its target T3, human CD40-Fc protein (human, UniProt P25942 21-193).
T3 construct: also called human CD40-Fc fusion protein; CD40-Fc antigen; not shown: Fc part
Described as above. The protocol:
as §3

Experiment [5] concerns the target T4, human CD40 overexpressed on cells (human, UniProt P25942 21-277).
T4 construct: Cells transfected with human CD40 cDNA; also called CHO-huCD40 cells; CHO-S cells overexpressing human CD40
Kind of experiment: flow cytometry on CHO-S cells overexpressing human CD40. As for the experimental part:
as §2

In experiment [6] the target is T3, human CD40-Fc protein. As to the kind of experiment: BLI (ForteBio), CD40-Fc on AHQ sensor, 100 nM Fab in solution, monovalent, 1:1 model. As for the experimental part:
as §1

Numbering of substitutions follows the chain as printed.

T3 sequence (P25942 21-193 limits assumed): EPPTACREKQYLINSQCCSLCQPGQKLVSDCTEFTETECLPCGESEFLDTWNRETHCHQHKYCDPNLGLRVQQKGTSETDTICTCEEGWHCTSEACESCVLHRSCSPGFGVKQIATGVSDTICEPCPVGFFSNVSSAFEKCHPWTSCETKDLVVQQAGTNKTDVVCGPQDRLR
T4 sequence (P25942 21-277 limits assumed): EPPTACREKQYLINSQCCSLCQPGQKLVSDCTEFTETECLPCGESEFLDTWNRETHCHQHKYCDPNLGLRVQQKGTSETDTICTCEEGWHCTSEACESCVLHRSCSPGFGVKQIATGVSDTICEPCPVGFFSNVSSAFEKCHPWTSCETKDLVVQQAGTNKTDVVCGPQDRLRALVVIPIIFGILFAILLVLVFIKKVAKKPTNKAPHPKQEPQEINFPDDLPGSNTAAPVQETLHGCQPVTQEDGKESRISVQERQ

B1: ADI-55136 Fab (Fab, V domains shown)
VH: QVQLVESGGGVVQPGRSLRLSCAASGFTFSSYGMHWVRQAPGKGLEWVAVISYHASSKYYADSVKGRFTISRDNSKNTLYLQMNSLRAEDTAVYYCARDTSRGHDIWGQGTMVTVSS
VL: EIVLTQSPGTLSLSPGERATLSCRASQSVSSSYLAWYQQKPGQAPRLLIYGASSRATGIPDRFSGSGSGTDFTLTISRLEPEDFAVYYCQQYADYPPFTFGGGTKVEIK
As to B1, the Kd in experiment [1] was determined as 78.1 nM.

B2: ADI-55136 (antibody, human IgG1, kappa, V domains shown)
VH: B1 VH
VL: EIVLTQSPGTLSLSPGERATLSCRASQSVSSSYLAWYQQKPGQAPRLLIYGASSRATGIPDRFSGSGSGTDFTLTISRLEPEDFAVYYCQQYADYPPFTFGGGTKVEIKR
What is called EC50 is the concentration giving half of the maximal effect. Read a high EC50 as lower potency in that assay. Take B2: the EC50 in experiment [2] stood at 4.83 nM. Moreover, the Kd in experiment [3] was 0.383 nM.

B3: ADI-55144 (antibody, human IgG1, kappa, V domains shown)
VH: B1 VH with S30E, S31K, H54E, A55G, S56T, S57K
VL: B2 VL with S31Y, R55L, A93S
Turning to B3, the Kd turned out to be 0.19 nM in experiment [3] and 0.11 nM in experiment [4].

B4: ADI-55145 (antibody, human IgG1, kappa, V domains shown)
VH: B1 VH with S30E, S31K, H54E, A55G, S56T
VL: B2 VL with R24Q, S31Y, S32N, A56N, T57N, A93S
In the case of B4, the EC50 is 5.26 nM in experiment [5] and 6.66 nM in experiment [2]. In addition, the results for the Kd in experiment [3] and in experiment [4] were 0.226 nM and 0.169 nM, respectively.

B5: ADI-55145 Fab (Fab, V domains shown)
VH: B1 VH with S30E, S31K, H54E, A55G, S56T
VL: B1 VL with R24Q, S31Y, S32N, A56N, T57N, A93S
For B5, the Kd in experiment [1] was 5.72 nM; in experiment [6], 5.88 nM.

B6: ADI-55140 Fab (Fab, V domains shown)
VH: B1 VH with S30E, S31K, S52H, H54E, A55G, S57I
VL: B1 VL with S31Y, S32D, S54T, T57N, Q90G, Q91E
Consider B6, for which the values for the Kd in experiment [1] and in experiment [6] were 5.42 nM and 5.77 nM, respectively.

B7: ADI-55144-2 (antibody, human IgG1, kappa, V domains shown)
VH: B1 VH with S30E, S31K, H54E, A55G, S56T, S57K, D62E
VL: B2 VL with S31Y, R55L, A93S
For the molecule B7, the half-maximal effective concentration (EC50) in experiment [5] came to 11.5 nM; in experiment [2], 15 nM.

B8: ADI-55142 (antibody, human IgG1, kappa, V domains shown)
VH: B1 VH with S30E, S31K, H54E, A55G, S56E, S57K
VL: B2 VL with S31Y, T57N, Q90S, Q91D
With B8, the concentration giving a half-maximal response (EC50) worked out at 7.69 nM in experiment [5] and 6.32 nM in experiment [2]. The Kd in experiment [3] came to 0.193 nM; in experiment [4], 0.146 nM.

B9: ADI-55147 Fab (Fab, V domains shown)
VH: B1 VH with S30G, H54E, A55G, S56V, S57K
VL: B1 VL with S31Y, S32D, S54A, T57N
notes: also called Fab fragment of ADI-55147
Take B9: the Kd in experiment [1] worked out at 8.87 nM; in experiment [6], 8.67 nM.

B10: ADI-55142 Fab (Fab, V domains shown)
VH: B1 VH with S30E, S31K, H54E, A55G, S56E, S57K
VL: B1 VL with S31Y, T57N, Q90S, Q91D
Consider B10, for which the Kd turned out to be 2.81 nM in experiment [1] and 2.74 nM in experiment [6].

B11: ADI-55147 (antibody, human IgG1, kappa, V domains shown)
VH: B1 VH with S30G, H54E, A55G, S56V, S57K
VL: B2 VL with S31Y, S32D, S54A, T57N
Consider B11, for which the values for the EC50 in experiment [5] and in experiment [2] were 7.49 nM and 4.49 nM, respectively. Further, the Kd was 0.208 nM in experiment [3] and 0.139 nM in experiment [4].

B12: ADI-55144 Fab (Fab, V domains shown)
VH: B1 VH with S30E, S31K, H54E, A55G, S56T, S57K
VL: B1 VL with S31Y, R55L, A93S
On to B12, for which the Kd in experiment [1] was determined as 2.21 nM; in experiment [6] it was 2.08 nM.

B13: ADI-55140 (antibody, human IgG1, kappa, V domains shown)
VH: B1 VH with S30E, S31K, S52H, H54E, A55G, S57I
VL: B2 VL with S31Y, S32D, S54T, T57N, Q90G, Q91E
Turning to B13, the EC50 was determined as 6.3 nM in experiment [5] and 8.53 nM in experiment [2]. In addition, the results for the Kd in experiment [3] and in experiment [4] were 0.23 nM and 0.168 nM, respectively.

B14: ADI-47741 (antibody, human IgG1, kappa, V domains shown)
VH: QVQLQESGPGLVKPSETLSLTCTVSGGSISSYYWSWIRQPPGKGLEWIGSIYYSGSTNYNPSLKSRVTISVDTSKNQFSLKLSSVTAADTAVYYCARDANYYKWHPYWGQGTLVTVSS
VL: EIVLTQSPGTLSLSPGERATLSCRASQSVSSDYLAWYQQKPGQAPRLLIYGASSRATGIPDRFSGSGSGTDFTLTISRLEPEDFAVYYCQQVLSYPPTFGGGTKVEIKR
In the case of B14, the response in experiment [2] was half-maximal at 17.9 nM (EC50). Also, the Kd in experiment [3] amounted to 0.559 nM.

B15: ADI-47741 Fab (Fab, V domains shown)
VH: B14 VH
VL: EIVLTQSPGTLSLSPGERATLSCRASQSVSSDYLAWYQQKPGQAPRLLIYGASSRATGIPDRFSGSGSGTDFTLTISRLEPEDFAVYYCQQVLSYPPTFGGGTKVEIK
Take B15: in experiment [1], the Kd came to 71 nM.

B16: ADI-55168 (antibody, human IgG1, kappa, V domains shown)
VH: EVQLVESGGGLVQPGRSLRLSCAASGFTFDTYAMHWVRQAPGKGLEWVSGISWSSGSIHYADSVKGRFTISRDNAKNSLYLQMNSLRAEDTAVYYCAKDPTATTGARGYFDLWGRGTLVTVSS
VL: DIQMTQSPSSVSASVGDRVTITCEASQVISSWLAWYQQKPGKAPKLLIYAASYLQSGVPSRFSGSGSGTDFTLTISSLQPEDFATYYCQQHSSFPPTFGGGTKVEIKR
In the case of B16, the results for the EC50 in experiment [5] and in experiment [2] were 4.73 nM and 8.85 nM, respectively. The Kd in experiment [3] amounted to 0.122 nM; in experiment [4] it was 0.111 nM.

B17: ADI-55168 Fab (Fab, V domains shown)
VH: B16 VH
VL: DIQMTQSPSSVSASVGDRVTITCEASQVISSWLAWYQQKPGKAPKLLIYAASYLQSGVPSRFSGSGSGTDFTLTISSLQPEDFATYYCQQHSSFPPTFGGGTKVEIK
In the case of B17, the Kd in experiment [1] stood at 0.586 nM; in experiment [6] it was 0.988 nM.

B18: ADI-55164 Fab (Fab, V domains shown)
VH: B16 VH with T31D, G56D
VL: B17 VL with E24R, Q27K, Q55E
notes: also called Fab fragment of ADI-55164
Consider B18, for which the Kd in experiment [1] worked out at 0.72 nM; in experiment [6], 0.663 nM.

B19: ADI-55164 (antibody, human IgG1, kappa, V domains shown)
VH: B16 VH with T31D, G56D
VL: B16 VL with E24R, Q27K, Q55E
For B19, the concentration for a half-maximal effect (EC50) in experiment [5] turned out to be 5.47 nM; in experiment [2], 8.06 nM. For the same molecule, the Kd in experiment [3] stood at 0.117 nM; in experiment [4], 0.1 nM.

B20: ADI-47720 Fab (Fab, V domains shown)
VH: B16 VH with T31D, H59G
VL: B17 VL with E24R, V28G, Y53S, H91R, S92A
For B20, the Kd in experiment [1] was 263 nM; in experiment [6], 152 nM.

The values are drawn from patent US20260265391A1 (BIOTHEUS, published 2026).
